According to patent US20250320281A1:

Experiments:
Assay in all cases: cell-based or functional assay
[1] = target: HIV-1 Env of isolate 92BR020 (clade B) on pseudovirus (HIV-1)
[2] = target: HIV-1 Env of isolate 92RW020 (clade A) on pseudovirus (HIV-1)
[3] = target: HIV-1 Env of isolate 93IN905 (clade C) on pseudovirus (HIV-1)
[4] = target: HIV-1 Env of isolate 93UG077 (clade A) on pseudovirus (HIV-1)
[5] = target: HIV-1 Env of isolate 94UG103 (clade A) on pseudovirus (HIV-1)
[6] = target: HIV-1 Env of isolate APV13 (clade B) on pseudovirus (HIV-1)
[7] = target: HIV-1 Env of isolate APV17 (clade B) on pseudovirus (HIV-1)
[8] = target: HIV-1 Env of isolate APV6 (clade B) on pseudovirus (HIV-1)
[9] = target: HIV-1 Env of isolate JRCSF (clade B) on pseudovirus (HIV-1) (UniProt P20871)
[10] = target: HIV-1 Env of isolate JRFL (clade B) on pseudovirus (HIV-1)
[11] = target: HIV-1 Env of isolate MGRM-C-026 (clade C) on pseudovirus (HIV-1)
[12] = target: HIV-1 Env of isolate MGRM-C-027 (clade C) on pseudovirus (HIV-1)
[13] = target: HIV-1 Env of isolate MGRM-D-001 (clade D) on pseudovirus (HIV-1)
[14] = target: HIV-1 Env of isolate MGRM-D-018 (clade D) on pseudovirus (HIV-1)

PGT-121 (4838_L06; 4873_E03) human monoclonal anti-HIV antibody
IC80 (pseudovirus neutralization) [1]: 0.0532 µg/mL
IC90 (pseudovirus neutralization) [1]: 0.101 µg/mL
IC80 (pseudovirus neutralization) [2]: 0.0188 µg/mL
IC90 (pseudovirus neutralization) [2]: 0.0361 µg/mL
IC95 (pseudovirus neutralization) [2]: 0.0671 µg/mL
IC80 (pseudovirus neutralization) [3]: 0.0302 µg/mL
IC90 (pseudovirus neutralization) [3]: 0.0645 µg/mL
IC90 (pseudovirus neutralization) [4]: 0.369 µg/mL
IC95 (pseudovirus neutralization) [4]: 0.74 µg/mL
IC80 (pseudovirus neutralization) [5]: 8.85 µg/mL
IC80 (pseudovirus neutralization) [6]: 1.31 µg/mL
IC90 (pseudovirus neutralization) [6]: 2.8 µg/mL
IC95 (pseudovirus neutralization) [6]: 5.15 µg/mL
IC80 (pseudovirus neutralization) [7]: 0.371 µg/mL
IC90 (pseudovirus neutralization) [7]: 0.799 µg/mL
IC95 (pseudovirus neutralization) [7]: 1.55 µg/mL
IC80 (pseudovirus neutralization) [8]: 0.145 µg/mL
IC95 (pseudovirus neutralization) [8]: 0.569 µg/mL
IC90 (pseudovirus neutralization) [9]: 0.223 µg/mL
IC95 (pseudovirus neutralization) [9]: 0.417 µg/mL
IC80 (pseudovirus neutralization) [10]: 0.0806 µg/mL
IC90 (pseudovirus neutralization) [10]: 0.151 µg/mL
IC95 (pseudovirus neutralization) [10]: 0.267 µg/mL
IC95 (pseudovirus neutralization) [11]: 0.0687 µg/mL
IC80 (pseudovirus neutralization) [12]: 0.0829 µg/mL
IC90 (pseudovirus neutralization) [12]: 0.374 µg/mL
IC95 (pseudovirus neutralization) [12]: 3.14 µg/mL
IC80 (pseudovirus neutralization) [13]: 3.29 µg/mL
IC90 (pseudovirus neutralization) [13]: 6.26 µg/mL
IC95 (pseudovirus neutralization) [13]: 9.39 µg/mL
IC80 (pseudovirus neutralization) [14]: 0.0231 µg/mL
IC90 (pseudovirus neutralization) [14]: 0.0414 µg/mL
IC95 (pseudovirus neutralization) [14]: 0.0715 µg/mL
